According to patent US8624002B2, “Prostaglandin E2 binding proteins and uses thereof” (AbbVie, Inc., priority 2008, dated 2014):

B1: Hu2B5.1: humanized 2B5-8.0; VH SEQ ID NO 60, VL SEQ ID NO 61 (antibody, V domains shown)
VH: EVQLVQSGAEVKKPGASVKVSCKASGYTFTKYWLGWVRQAPGQGLEWIGDIYPGYDYTHYNEKFKDRATLTVDTSTSTAYMELRSLRSDDTAVYYCARSDGSSTYWGQGTLVTVSS
VL: DVVMTQTPLSLPVTPGEPASISCTSSQNIVHSNGNTYLEWYLQKPGQSPQLLIYKVSNRFSGVPDRFSGSGSGTDFTLKISRVEAEDVGVYYCFQVSHVPYTFGGGTKVEIKR
B2: Hu2B5.4: humanized 2B5-8.0; VH SEQ ID NO 66, VL SEQ ID NO 67 (antibody, V domains shown)
VH: EVQLVQSGAEVKKPGASVKVSCKASGYTFTKYWLGWVRQAPGQGLEWIGDIYPGYDYTHYNEKFKDRATLTVDTSTSTAYMELSSLRSDDTAVYYCARSDGSSTYWGQGTLVTVSS
VL: DVLMTQTPLSLPVTPGEPASISCTSSQNIVHSNGNTYLEWYLQKPGQSPQLLIYKVSNRFSGVPDRFSGSGSGTDFTLKISRVEAEDVGVYYCFQVSHVPYTFGGGTKVEIKR
B3: Hu2B5.3: humanized 2B5-8.0; VH SEQ ID NO 64, VL SEQ ID NO 65 (antibody, V domains shown)
VH: EVQLVQSGAEVKKPGASVKVSCKASGYTFTKYWLGWVRQAPGQGLEWIGDIYPGYDYTHYNEKFKDRATLTVDTSTSTAYMELRSLRSDDTAVYYCARSDGSSTYWGQGTLVTVSS
VL: DVLMTQTPLSLPVTPGEPASISCTSSQNIVHSNGNTYLEWYLQKPGQSPQLLIYKVSNRFSGVPDRFSGSGSGTDFTLKISRVEAEDVGVYYCFQVSHVPYTFGGGTKVEIKR
B4: Hu2B5.8: humanized 2B5-8.0; VH SEQ ID NO 74, VL SEQ ID NO 75 (antibody, V domains shown)
VH: EVQLVQSGAEVKKPGASVKVSCKASGYTFTKYWLGWVRQAPGQGLEWMGDIYPGYDYTHYNEKFKDRVTLTTDTSTSTAYMELSSLRSDDTAVYYCARSDGSSTYWGQGTLVTVSS
VL: DVLMTQTPLSLPVTPGEPASISCTSSQNIVHSNGNTYLEWYLQKPGQSPQLLIYKVSNRFSGVPDRFSGSGSGTDFTLKISRVEAEDVGVYYCFQVSHVPYTFGGGTKVEIKR

How the values were obtained:
[1] = Biotin-PGE2 ELISA (PGE2-biotinamide binding to captured IgG)
[2] = Accelerated stability screening monitored by SEC; type: physicochemical; settings: SEC
Description: Size exclusion chromatography was used to separate proteins based on size. Proteins are carried in an aqueous mobile phase and through a porous stationary phase resin packed in a column. The retention time in the column is a function of the hydrodynamic size of the protein and the size of the pores in the packed resin bed. Smaller molecules can penetrate into smaller pores in the resin and are retained longer than larger molecules. Upon elution from the column the proteins are detected by UV absorbance. The SEC method used a TSK gel guard (TOSOH Biosciences, Montgomeryville, Pa., cat. no. 08543) and a TSK gel G3000SWxL (TOSOH Biosciences, Montgomeryville, Pa., cat. no. 08541). The mobile phase was 100 mM Na2HPO4, 200 mM Na2SO4, pH 7.0. The flow rate was 0.3 mL/minute. Injection volume was 20 μL of 1 mg/mL sample. The column temperature was room temperature. The autosampler temperature was 2-8° C. The total run time was 50 minutes. The detection was based on UV absorbance at 214 nm wavelength, with band width set at 8 nm, using reference wavelength at 360 nm with band width 100 nm.
(§1) The stability of a series of clones (i.e., anti-PGE2 antibodies) of the parent anti-PGE2 antibody was assessed by using intrinsic thermodynamic clone stability determination using DSC (0.79 mg/mL clone concentration, formulated at pH 6 in a 10 mM citrate, 10 mM phosphate buffer) and by accelerated stability screening (0.79 mg/mL clone concentration, formulated at pH 6 in a 10 mM citrate, 10 mM phosphate buffer, for 7 days at 50° C.) where clone stability was monitored with SEC (Table 15).

[3] = Intrinsic thermodynamic stability by DSC; type: physicochemical; settings: for Tm1 (° C.): 0.79 mg/mL, pH 6, 10 mM citrate, 10 mM phosphate; for Tm2 (° C.) / Tm3 (° C.): same buffer
Description: The thermal stability of the anti-PGE2 antibodies was assessed using a DSC instrument. The DSC instrument used was an automated VP-DSC equipment with Capillary Cell (Microcal, GE Healthcare Ltd./Microcal, Buckinghamshire, UK). Unfolding of molecules was studied applying a 1° C./minute scan rate over a 25° C.-95° C. temperature range for samples at 1 mg/mL. Additional measurement parameters applied were a fitting period of 16 seconds, a pre-scan wait time of 10 minutes, and measurements were performed in none-feedback mode. Per individual measurement, 420 μL of sample/blank were filled into the DSC measurement sample holder, with a plate fill scheme as provided below. The thermograms obtained were fitted to a non two state model to obtain the midpoint temperatures and enthalpies of the different transitions.
as §1

[4] = PGE2 competition ELISA, format not stated (biotin-PGE2 or ^3H-PGE2); type: binding; settings: humanized antibodies table
Description: Competition enzyme linked immunosorbent assays were performed to determine prostaglandin binding specificity for antibodies that bind prostaglandin E2, according to at least one of the two following methods.
ELISA plates (Costar 3369, Corning, N.Y.) were coated with 50 μl/well of anti-host Fc IgG (Sigma, St. Louis, Mo.) at 2 μg/ml in PBS (Invitrogen, Carlsbad, Calif.). Following an overnight incubation at 4° C., the plate was blocked with 200 μl Superblock (Pierce #37535, Rockford, Ill.). The IgG samples were diluted to 6 μg/ml in Assay Buffer (10% Superblock in PBS containing 0.05% Surfactamps (Pierce #37535, Rockford, Ill.). The PGE2-biotinamide was diluted to 3 nM in Assay Buffer. A titration curve in Assay Buffer was prepared for the prostaglandins PGA2 (Cayman Chemicals, Ann Arbor, Mich.), PGD2 (Cayman Chemicals, Ann Arbor, Mich.) and PGE2 (Cayman Chemicals, Ann Arbor, Mich.) starting at 300 nM by a 1:10 serial dilution. The reagents were added to tubes at a volume of 50 μl each/tube and preincubated for 1 hour at room temperature. Following the preincubation, the mix was transferred to the blocked plates and allowed to incubate for 1 hour at room temperature. Next, the plates were washed four times with Tween 20-Tris buffered solution (TTBS). Streptavidin polyhrp40 in Assay Buffer (Fitzgerald Industries, Concord, Mass.) at a 1:5000 dilution was then added to the wells and incubated for 45 minutes at room temperature. A final wash step was performed and the plates were developed using a single step TMB system (Sigma #T8665, Sigma, St. Louis, Mo.) and 100 μl/well 2N H2SO4. Plates were read at 450 nm on a Molecular Devices Spectramax plate reader (Sunnyvale, Calif.). […] IC50 number was determined using GraphPad Prism 5 (GraphPad Software, La Jolla, Calif.). The cross reactivity index was then calculated by IC50 of PGE2/IC50 of other prostaglandin(s).
Alternatively, prostaglandin selectivity was determined using a ^3H-PGE2 competition ELISA. Plates were coated with 50 μL/well of 5 μg/ml of goat anti-human IgG (Fc) (Thermo Scientific # 31170, Hudson, N.H.) or goat anti-mouse IgG (Fc) (Thermo Scientific # 31125, Hudson, N.H.) in PBS and incubated overnight at 4° C. The following day plates were flicked and blotted dry. Plates were blocked with 200 μL/well of Superblock (Thermo Scientific # 37515, Hudson, N.H.), 1 hour at room temperature. Plates were flicked and blotted dry. Monoclonal antibodies were diluted to 0.04 μg/ml in PBST (Abbott Bioresearch Center, Worcester, Mass.)/10% Superblock and 50 μL of each was added to each well (2 ng/well) of the pre-blocked ELISA plate and incubated for 1 hour at room temperature. Wells were washed 3 times with PBS/0.1% Tween-20. ^3H-PGE2 (Perkin Elmer # NET-428, Waltham, Mass.) was diluted in PBST/10% Superblock to 6 nM (2× stock). Each prostaglandin (Cayman Chemicals, Ann Arbor, Mich.) was prepared in PBST+10% Superblock at various concentrations ranging from 2000 μM (2× stock) to 0.00004 μM (2×). Equal volumes of the ^3H-PGE2 solution and of each prostaglandin dilution were mixed. Fifty microliters of this mixture was then added to each well of the plate and incubated for 1 hour at room temperature. Wells were washed manually 6 times with PBST/10% Superblock and 50 μL of scintillation fluid (Perkin Elmer # 6013621, Waltham, Mass.) added to each well. Plates were read using a TopCount reader (Perkin Elmer, Waltham, Mass.) with a 5 minute count delay. IC50 number was determined using GraphPad Prism 5 (GraphPad Software, La Jolla, Calif.). The cross reactivity index was then calculated by IC50 of PGE2/IC50 of other prostaglandin(s)
Several antibodies, named 19C9, 4F10 and 15F10 specific for PGE2 were isolated. […] The specificity of these antibodies for PGE2 was further determined by a competition ELISA with various prostaglandins as described in Example 1.B (Table 2). […]

[5] = start of stability study, 0.79 mg/mL, pH 6

| Molecule | EC50 [1] | Aggregate (%) ([2]; 7 days storage at 50° C.) | Fragment (%) ([2]; 7 days storage at 50° C.) | Monomer (%) ([2]; 7 days storage at 50° C.) | Fragment (%) ([2]; start of stability study) | Monomer (%) ([2]; start of stability study) | Aggregate (%) [2, 5] | Tm1 (° C.) [3] | Tm2 (° C.) [3] | Tm3 (° C.) [3] | Cross Reactivity Index (%) PGA2 [4] | Cross Reactivity Index (%) PGD2 [4] | Cross Reactivity Index (%) PGE1 [4] |
| --- | --- | --- | --- | --- | --- | --- | --- | --- | --- | --- | --- | --- | --- |
| B1 | 63 pM | 2.5611% | 6.3675% | 91.0715% | 4.4044% | 93.7885% | 1.8071% | 72.835 °C | 75.02 °C | 82.785 °C | 0.21% | <0.01% | 16% |
| B2 | 57 pM | 2.1689% | 6.5423% | 91.2889% | 3.2146% | 94.5513% | 2.234% | 71.095 °C | 72.41 °C | 82.58 °C | 0.22% | <0.01% | 14% |
| B3 | 59 pM | 2.6042% | 5.044% | 92.3518% | 3.6853% | 94.1987% | 2.116% | 72.67 °C | 72.96 °C | 82.67 °C | 0.18% | <0.01% | 14% |
| B4 | 87 pM | 2.5144% | 4.184% | 93.3016% | 3.2904% | 94.5969% | 2.1126% | 72.96 °C | 75.33 °C | 82.83 °C | 0.20% | <0.01% | 8.5% |
